The text below walks through data of US12668821B2, “Enzymatic production of glucaric acid from glucuronic acid” (THE GOVERNING COUNCIL OF THE UNIVERSITY OF TORONTO, priority 2019, dated 2026).

Positions count from the first letter of the chain named. Numbers in names are those of the source. Entries after “also recorded” stand apart in the source; their conditions may differ.

Data set [1] is described as follows: Degradation of MeGlcA by H2O2 (HPAEC-PAD). The data set is classed as physicochemical. The note with it: up to 100 mM H2O2, 50 mM Tris pH 8.0, 40° C., 16 h. The method, then: FIG. 10: HPAEC-PAD analyses of H2O2 effects on AxyAgu115A activity and MeGlcA degradation.
AxyAgu115A (10 μg/mL) was incubated with 1% glucuronoxylan in 50 mM Tris buffer pH 8.0 in the presence of various H2O2 concentrations (0.01-100 mM). MeGlcA (1 mM) was also incubated with the same H2O2 concentrations. The reactions were kept in the dark at 40° C. for 16 h in a thermomixer (Eppendorf, USA). Catalase (200 μg/mL) was then added, and the reactions were kept incubating for another 30 min to remove H2O2 before HPAEC-PAD analysis.
Even at 200 mM H2O2, GOOX-Y300A retained more than 50% of its activity on glucose and 100% of its activity on cellobiose (Vuong et al., 2016).

A short description of data set [2]: Activity screening of GOOX variants and glucose oxidase on GlcA. Type of data set: biochemical. The following applies: for nmol oxidized GlcA Mean: enzyme 16 nM, 37° C., 10 mM GlcA (FIG. 11 legend; b102 says 100 mM), 100 mM Tris pH 8.0 (GOOX variants) or 50 mM sodium acetate pH 5.0 (GO); for activity with GlcA as substrate (in words): screening, compared with wtGOOX. The method, then: (§1) FIG. 11: Activity screening of GOOX variants and glucose oxidase (GO) on GlcA and MeGlcA substrates. The enzymes (16 nM) were assayed at 37° C. with 10 mM GlcA and 1 mM MeGlcA in 100 mM Tris buffer pH 8.0 (for GOOX variants) or 50 mM sodium acetate pH 5.0 (for GO). The dotted line indicates the activity of GOOX-VN for MeGlcA for ease of comparison. “CtCBM22A-wtGOOX” and “CtCBM22A-Y300A” represent fusion proteins where the C terminus of the xylan-binding protein CtCBM22A (described in Vuong and Master, 2014) is fused to the N terminus GOOX.
(§2) The specific activity of GOOX-Y300A (16 nM) on MeGlcA and GlcA (1 mM) was measured in 50 mM Tris buffer pH 8.0 at 40° C. The amount of methyl glucaric acid was determined by measuring the release of H2O2 using a previously published colorimetric assay (Lin et al., 1991). The kinetics of GOOX-Y300A on these acidic sugars were measured at the same condition, but using up to 60 mM MeGlcA and GlcA and in 0.3 M Tris buffer pH 8.0.

Data set [3] can be described thus: Activity screening of GOOX variants and glucose oxidase on MeGlcA. Type of data set: biochemical. The following applies: for nmol oxidized MeGlcA Mean: enzyme 16 nM, 37° C., 1 mM MeGlcA (FIG. 11 legend; b102 says 10 mM), 100 mM Tris pH 8.0 (GOOX variants) or 50 mM sodium acetate pH 5.0 (GO). The procedure:
as §1, §2

Turning to `CO[C@@H]([C@H](O)[C@@H](O)C=O)[C@H](O)C(=O)O` [MeGlcA, 4-O-methyl D-glucuronic acid], the “loss of MeGlcA in the presence of H2O2” value in data set [1] is recorded as “no loss of MeGlcA; also recorded: did not cause a loss of MeGlcA”.

B1: N388S: GOOX variant with N388S relative to SEQ ID NO: 1 (protein, listed as Sarocladium strictum)
chain: NSINACLAAADVEFHEEDSEGWEMDGTAFNLRVDYDPVAIAIPRSTEDIAAAVQCGLDAGVQISAKGGGHSYGSYGFGGEDGHLMLELDRMYRVSVDDDNVATIQGGARLGYTALELLDQGNRALTHGTCPAVGIGGHVLGGGYGFATHTHGLTLDWLVGATVVLADASIVHVSKTENADLFWALRGGGGGFAIVSEFEFNTFEAPEIITTYQVTTTWNRKQHVAGLKALQDWAENTMPRELSMRLEINANALNWEGNYFGNAKDLKKVLQPIMKKAGGKSTISKLVETDWYGQINTYLYGADLNITYNYDVHEYFYANSLTAPRLSDEAISAFVDYKFDNSSVRPGRGWWIQWDFHGGKNSALASHSNDETAYAHRDQLWLWQFYDSIYDYENNTSPYPESGFEFMQGFVATIEDTLPEDRKGKYFNYADTTLDKEEAQKLYWRGNLEKLQAIKAKYDPEDVFGNVVSVEPIA
modifications: (1)..(206) FAD-binding domain; (207)..(474) substrate-binding domain
On to B1, for which, in data set [2], the “nmol oxidized GlcA Mean” value is -0.02652 nmol and the “activity with GlcA as substrate (in words)” value (“activity with GlcA” below) is on record as “improved activity over wtGOOX”. Also, in data set [3], the “nmol oxidized MeGlcA Mean” value was found to be 1.4023 nmol. The “activity with MeGlcA as substrate (in words)” value in data set [3] (screening, compared with wtGOOX) is “improved activity over wtGOOX”.

B2: Q353N: GOOX variant with Q353N relative to SEQ ID NO: 1 (protein, listed as Sarocladium strictum)
chain: B1 chain with Q353N, S388N
modifications: (1)..(206) FAD-binding domain; (207)..(474) substrate-binding domain
Take B2: in data set [2], the “nmol oxidized GlcA Mean” value turned out to be 0.09327 nmol and the “activity with GlcA” value was “improved activity over wtGOOX”. The “nmol oxidized MeGlcA Mean” value in data set [3] worked out at 0.4522 nmol.

B3: wtGOOX: Wild-type gluco-oligosaccharide oxidase from Sarocladium strictum, SEQ ID NO: 1, with C-terminal myc-tag and 6xHis-tag (protein, listed as Sarocladium strictum)
chain: B1 chain with S388N
modifications: C-terminal myc-tag and 6xHis-tag; (1)..(206) FAD-binding domain; (207)..(474) substrate-binding domain
Consider B3, for which the “nmol oxidized GlcA Mean” value in data set [2] is -0.04572 nmol. For the same molecule, the “nmol oxidized MeGlcA Mean” value in data set [3] amounted to 0.9032 nmol.

B4: N388S-V38A: GOOX variant with N388S and V38A relative to SEQ ID NO: 1 (protein, listed as Sarocladium strictum)
chain: B1 chain with V38A
modifications: (1)..(206) FAD-binding domain; (207)..(474) substrate-binding domain
As to B4, in data set [2], the “nmol oxidized GlcA Mean” value was 0.02835 nmol. The “nmol oxidized MeGlcA Mean” value in data set [3] is reported as 0.9559 nmol.

B5: W351A: GOOX variant with W351A relative to SEQ ID NO: 1 (protein, listed as Sarocladium strictum)
chain: B1 chain with W351A, S388N
modifications: (1)..(206) FAD-binding domain; (207)..(474) substrate-binding domain
Take B5: in data set [2], the “nmol oxidized GlcA Mean” value amounted to 0.06492 nmol and the “activity with GlcA” value was “improved activity over wtGOOX”. For the same molecule, the “nmol oxidized MeGlcA Mean” value in data set [3] was found to be 0.7166 nmol.

B6: Q384A: GOOX variant with Q384A relative to SEQ ID NO: 1 (protein, listed as Sarocladium strictum)
chain: B1 chain with Q384A, S388N
modifications: (1)..(206) FAD-binding domain; (207)..(474) substrate-binding domain
Take B6: the “nmol oxidized GlcA Mean” value in data set [2] is -0.00914 nmol. Besides, in data set [3], the “nmol oxidized MeGlcA Mean” value turned out to be 0.4569 nmol.

B7: Q384N: GOOX variant with Q384N relative to SEQ ID NO: 1 (protein, listed as Sarocladium strictum)
chain: B1 chain with Q384N, S388N
modifications: (1)..(206) FAD-binding domain; (207)..(474) substrate-binding domain
Regarding B7, the “nmol oxidized GlcA Mean” value in data set [2] was -0.02195 nmol. The “nmol oxidized MeGlcA Mean” value in data set [3] worked out at 0.683 nmol.

B8: Y300N: GOOX variant with Y300N relative to SEQ ID NO: 1 (protein, listed as Sarocladium strictum)
chain: B1 chain with Y300N, S388N
modifications: (1)..(206) FAD-binding domain; (207)..(474) substrate-binding domain
As to B8, the “nmol oxidized GlcA Mean” value in data set [2] was -0.03749 nmol. Moreover, the “nmol oxidized MeGlcA Mean” value in data set [3] worked out at 0.08201 nmol.

B9: Y72A: GOOX variant with Y72A relative to SEQ ID NO: 1 (protein, listed as Sarocladium strictum)
chain: B1 chain with Y72A, S388N
modifications: (1)..(206) FAD-binding domain; (207)..(474) substrate-binding domain
Consider B9, for which the “nmol oxidized GlcA Mean” value in data set [2] was -0.01097 nmol. For the same molecule, the “nmol oxidized MeGlcA Mean” value in data set [3] stood at 0.8997 nmol.

B10: E314A: GOOX variant with E314A relative to SEQ ID NO: 1 (protein, listed as Sarocladium strictum)
chain: B1 chain with E314A, S388N
modifications: (1)..(206) FAD-binding domain; (207)..(474) substrate-binding domain
Consider B10, for which the “nmol oxidized GlcA Mean” value in data set [2] is -0.03292 nmol. Further, the “nmol oxidized MeGlcA Mean” value in data set [3] is given as 1.0403 nmol.

B11: Q353A: GOOX variant with Q353A relative to SEQ ID NO: 1 (protein, listed as Sarocladium strictum)
chain: B1 chain with Q353A, S388N
modifications: (1)..(206) FAD-binding domain; (207)..(474) substrate-binding domain
B11: in data set [2], the “nmol oxidized GlcA Mean” value amounted to 0.05212 nmol and the “activity with GlcA” value was “improved activity over wtGOOX”. The “nmol oxidized MeGlcA Mean” value in data set [3] is recorded as 0.594 nmol.

B12: W351F: GOOX variant with W351F relative to SEQ ID NO: 1 (protein, listed as Sarocladium strictum)
chain: B1 chain with W351F, S388N
modifications: (1)..(206) FAD-binding domain; (207)..(474) substrate-binding domain
Turning to B12, the “nmol oxidized GlcA Mean” value in data set [2] is -0.04298 nmol. For the same molecule, in data set [3], the “nmol oxidized MeGlcA Mean” value was determined as 0.08201 nmol.

B13: Y72F: GOOX variant with Y72F relative to SEQ ID NO: 1 (protein, listed as Sarocladium strictum)
chain: B1 chain with Y72F, S388N
modifications: (1)..(206) FAD-binding domain; (207)..(474) substrate-binding domain
As for B13, in data set [2], the “nmol oxidized GlcA Mean” value amounted to 0.05395 nmol and the “activity with GlcA” value is on record as “improved activity over wtGOOX”. Also, the “nmol oxidized MeGlcA Mean” value in data set [3] was 0.6279 nmol.

B14: E247A: GOOX variant with E247A relative to SEQ ID NO: 1 (protein, listed as Sarocladium strictum)
chain: B1 chain with E247A, S388N
modifications: (1)..(206) FAD-binding domain; (207)..(474) substrate-binding domain
With B14, in data set [2], the “nmol oxidized GlcA Mean” value was 0.05669 nmol and the “activity with GlcA” value is recorded as “improved activity over wtGOOX”. In data set [3], the “nmol oxidized MeGlcA Mean” value is on record as 0.724 nmol.
